From patent publication CN105348390A (BEIJING WISDOMAB BOITECHNOLOGY CO LTD, dated 2016)
Substitutions are numbered along the chain they refer to.

B1: H4H4-IgG4 (antibody, V domains shown)
VH: QVQLVQSGAEVKKPGASVKVSCKASGYAIYNYGISWVRQAPGQGLEWMGWVSFYNGNTNYAQKLQGRGTMTTDPSTSTAYMELRSLRSDDTAVYYCARGYVMDIWGQGTTVTVSS
VL: DIQMTQSPSSLSASVGDRVTITCRASQSINNWLDWYQQKPGKAPKLLIYAASTRPSGVPSRFSGSGSGTDFTLTISSLQPEDFATYYCQQDQDIPPTFGQGTKVEIKR
B2: H8F4-IgG4 (antibody, V domains shown)
VH: B1 VH with I29L
VL: B1 VL
B3: H7B12-IgG4 (antibody, V domains shown)
VH: B1 VH with A28T, I29L, Y30N
VL: B1 VL
B4: H8A7-IgG4 (antibody, V domains shown)
VH: B1 VH with I104F
VL: B1 VL
B5: Alirocumab (antibody, V domains shown)
VH: EVQLVESGGGLVQPGGSLRLSCAASGFTFNNYAMNWVRQAPGKGLDWVSTISGSGGTTNYADSVKGRFIISRDSSKHTLYLQMNSLRAEDTAVYYCAKDSNWGNFDLWGRGTLVTVSS
VL: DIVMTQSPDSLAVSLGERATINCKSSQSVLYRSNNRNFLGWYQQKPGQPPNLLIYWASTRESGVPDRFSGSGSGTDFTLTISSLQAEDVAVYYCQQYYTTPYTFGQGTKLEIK
B6: S2G1 (scFv)
scFv: QMQLVQSGAEVKKPGSSVKVSCKTSGGTFGSSAIHWVRQAPRQGLEWMGRINPVLGTTNYTQKFHDRLTITADESTTTAYMELRSLRSDDTAVYYCAREGIPMIWGQGTMVTVSSGGGGSGGGGSGGGGSDIQMTQSPSSLSASVGDRVTITCRASQGIHNWLNWYQQKPGKAPKLLIYAASNRASGVPSRFSGSGSGTDFTLTISSLQPEDFATYYCQQSGKQPVTFGQGTKVEIK
notes: also called 克隆S2G1
B7: S2B8 (scFv)
scFv: QVQLVESGGGLVKPGGSLRLSCAVSGFTFSRHSMNWVRQAPGKGLEWVSSISSGSSNIYYADSVKGRFTISRDNAKNSLYLQMNSLRDEDTAVYYCARGGLGPEYLQHWGQGTLVTVSSGGGGSGGGGSGGGGSSSELTQPASVSGSPGQSITISCTGTSSDIGDNNFVSWYQQYPGKAPKLMIYDVSNRPSGVSNRFSGSKSGNTASLTISGLQAEDEADYYCSSYTSSSTLVFGGGTKVTVLG
notes: also called 克隆S2B8
B8: S3A12 (scFv)
scFv: QVQLVQSGAEVKKPGASVKVSCKASGYAIYNYGISWVRQAPGQGLEWMGWVSYFGGSTTYAQKLQGRGTMTTDPSTSTAYMELRSLRSDDTAVYYCAKGYGMEIWGQGTTVSSGGGGSGGGGSGGGGSDIQMTQSPSSLSASVGDRVTITCRASQNVNNWLDWYQQKPGKAPKLLIYAASTRASGVPSRFSGSGSGTDFTLTISSLQPEDFATYYCQQDRDVPVTFGQGTKVEIK
notes: also called 克隆S3A12
B9: S2F5 (scFv)
scFv: QVQLVQSGAEVKKPGSSVKVSCKASGGTFTGYSIHWVRQAPGQGLEWMGWINPISGSANYAQKFQGRVTITADKSTSTAYMELSSLRSEDTAVYYCARTQNNTGYRGTDYWGQGTLVTVSSGGGGSGGGGSGGGSDIQMTQSPSSLSASVGDRVTITCRASQSVSSYLNWYQQKPGKAPKLLIYGASTRPSGVPSRFSGSGSGTDFTLTISSLQPEDFATYYCQQHADTPTTFGQGTKVEIK
notes: also called 克隆S2F5

The binders below were run against T1, 重组huPCSK9-his (人PCSK9, C端His-tag) (human, UniProt Q8NBP7 54-692) (assay: SPR, Biacore 3000, antibody captured by anti-human Fc on CM5, huPCSK9 as analyte).
T1 construct: Expressed in HEK293 cells; not shown: C-terminal His-tag
T1 sequence (Q8NBP7 other isoform, or with tags, fused parts or gaps): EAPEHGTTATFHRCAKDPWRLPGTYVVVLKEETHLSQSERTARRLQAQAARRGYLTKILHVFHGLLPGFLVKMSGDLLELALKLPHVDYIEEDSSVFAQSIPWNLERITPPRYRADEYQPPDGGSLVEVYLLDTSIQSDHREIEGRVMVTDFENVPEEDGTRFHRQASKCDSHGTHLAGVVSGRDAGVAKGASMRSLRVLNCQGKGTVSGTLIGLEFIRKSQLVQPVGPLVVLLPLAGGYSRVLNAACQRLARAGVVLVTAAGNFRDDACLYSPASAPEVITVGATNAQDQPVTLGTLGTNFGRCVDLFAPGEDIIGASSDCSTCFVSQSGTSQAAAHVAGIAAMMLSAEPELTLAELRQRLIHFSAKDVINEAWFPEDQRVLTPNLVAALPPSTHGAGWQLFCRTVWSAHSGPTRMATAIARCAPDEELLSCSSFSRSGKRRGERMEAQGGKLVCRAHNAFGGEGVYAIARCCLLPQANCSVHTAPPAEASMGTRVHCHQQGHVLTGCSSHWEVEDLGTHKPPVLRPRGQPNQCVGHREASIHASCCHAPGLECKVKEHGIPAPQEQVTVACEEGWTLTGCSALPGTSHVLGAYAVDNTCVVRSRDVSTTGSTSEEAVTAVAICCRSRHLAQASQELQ

Kd	koff	kon	Binder
0.0659 nM	4.7e-05 s⁻¹	714000 M⁻¹ s⁻¹	B1
0.0675 nM	4.48e-05 s⁻¹	663000 M⁻¹ s⁻¹	B2
0.0323 nM	3.26e-05 s⁻¹	1.01e+06 M⁻¹ s⁻¹	B3
0.0648 nM	4.83e-05 s⁻¹	746000 M⁻¹ s⁻¹	B4
0.0677 nM	0.000154 s⁻¹	2.27e+06 M⁻¹ s⁻¹	B5

The binders below were run against T1, 重组huPCSK9-his (人PCSK9, C端His-tag) (assay: solid-phase panning of scFv phage library on huPCSK9-his).

binding result	Binder
binds	B6
binds	B7
binds	B8
binds	B9
